Patent US8153134 (SCHERING, dated 2012)
Residue numbers refer to the chain shown, from its start.

T1: hMDL-1-hIG (human, UniProt Q9NY25 28-188)
T1 construct: Fusion of human MDL-1 with human Ig used in the BIAcore assay; MDL-1 is a type II membrane protein, so the Ig part may stand N-terminal; also called MDL-1-hIg ligand; not shown: human Ig part (hIG)
T1 sequence: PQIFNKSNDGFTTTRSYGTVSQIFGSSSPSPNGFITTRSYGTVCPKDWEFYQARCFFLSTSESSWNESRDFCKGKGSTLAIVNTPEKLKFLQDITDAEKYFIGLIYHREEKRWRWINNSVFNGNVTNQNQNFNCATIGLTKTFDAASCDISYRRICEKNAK

T2: human MDL-1 (human, UniProt Q9NY25 1-188)
T2 sequence: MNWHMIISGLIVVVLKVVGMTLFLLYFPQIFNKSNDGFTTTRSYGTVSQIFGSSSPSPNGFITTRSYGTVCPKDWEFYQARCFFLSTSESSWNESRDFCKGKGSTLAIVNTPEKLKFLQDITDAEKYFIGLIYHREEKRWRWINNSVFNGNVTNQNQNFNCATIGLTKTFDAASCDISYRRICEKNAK

B1: DX240 (antibody, V domains shown)
VH: QVQLLQSGAELVKPGASVKISCKASGYTFTDHAIHWVKQKPEQGLEWIGYISPGDGDIKYNEKFKDKATLTADKSSSIAYMQLNSLTSEDSAVYFCKNFDYDFIFDFWGQGTTLTVSS
VL: DIVMSQSPSSLAVSAGETVTMSCKSSQSLLNSRARKNYLAWYQQKPGQSPKLLIYWASTRESGVPDRFTGSGSGTDFTLTISSVRAEDLAVYYCKQSYNLYTFGGGTKLEIKR
notes: Rodent anti-human MDL-1 monoclonal antibody from a hybridoma; VL of the kappa subclass; also called anti-MDL-1 antibody clone DX240; ATCC PTA-9136
B2: DX233 (antibody, V domains shown)
VH: EVQMQQSGAELVKPGASVKLSCTASGFNIKDTYMHWVKQRPEQGLEWIGRIDPANGITKSDPKFQGKATITADTSSNTAYLQLNSLTSEDTAVYSCAPYSGNYVWFPYWGQGTLVTVSA
VL: DIVMTQSHKFMSTSVGDRVNITCKASQDVGTAVAWYQRKPGKSPQVLIYWASTRHTGVPDRFTGSGSGTDFTLTISNVQSEDLADYFCQQYRSYPLTFGAGTKLELKR
notes: Rodent anti-human MDL-1 monoclonal antibody from a hybridoma; VL of the kappa subclass; also called anti-MDL-1 antibody clone DX233
B3: DX239 (antibody, V domains shown)
VH: QVQLQQSGAELVRPGTSVKISCKASGYGFNNYWLGWVKQRPGHGLEWIGDIYPGSGNTYYNENFKGRATLTADKSSTTAYMQVSSLTSEDSAVYFCARGKESFAYWGQGTLVTVSA
VL: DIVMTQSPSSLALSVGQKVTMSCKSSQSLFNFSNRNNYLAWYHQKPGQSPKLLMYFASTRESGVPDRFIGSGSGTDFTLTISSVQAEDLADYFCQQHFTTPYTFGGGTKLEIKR
notes: Parental rodent anti-human MDL-1 monoclonal antibody (not the humanized form); VL of the kappa subclass; also called anti-MDL-1 antibody clone DX239; ATCC PTA-9135
B4: DX246 (antibody, V domains shown)
VH: QVTLKESGPGILKPSQTLSLTCSFSGFSLSTSGMNVGWIRQPSGKGLEWLAHIWWDDDKYYNPSLKSQLTISKDTSRNQVFLKITSVDTADTATYYCARRAFYGSNYDYYAMDYWGQGTSVTVSS
VL: ENVLTQSPAIMSASPGEKVTMTCSVSSSVSYIHWYQQKSSTSPKLWIYDTSKLASGVPGRFSGSGSGNSYSLTISSMEAEDVATYYCFQGSGYPLTFGAGTKLELKR
notes: Rodent anti-human MDL-1 monoclonal antibody from a hybridoma; VL of the kappa subclass; also called anti-MDL-1 antibody clone DX246; ATCC PTA-8376
B5: DX230 (antibody, V domains shown)
VH: EVQLVESGGDLVKPGGSLKLSCAASGFAFSNYDMSWVRQTPEKRLEWVAYISGGGGTTYYSDTVKGRFTISRDNAKNTLYLQMSSLKSEDTAMYYCVRHAVYYGKPYWGQGTTLTVSS
VL: DIVLTQSPPSLAVSLGQRATVSCRASESVEHYGTGLMQWYQQKPGQPPRLLIYAASNVESGVPARFSGSGSGTDFSLNIHPVEEDDIAMYFCQQSRKVPWTFGGGTKLEIKR
notes: Rodent anti-human MDL-1 monoclonal antibody from a hybridoma; VL of the kappa subclass; also called anti-MDL-1 antibody clone DX230; ATCC PTA-8373
B6: DX241 (antibody, V domains shown)
VH: DVKLVESGGGLVKLGGSLKLSCAASGFTFSSYYMSWVRQTPDKRLELVAAINSNGGTTYYPDTVKGRFTISRDNAKNTLYLQMSSLKPEDTALFYCVRDGEFGHYFDYWGQGTTLTVSS
VL: SIVMTQTPKFLLVSAGDRVTITCKASQSVNNDVAWYQQKPGQSPKLLIYYASNRYTGVPDRFTGSGYGTDFTFTISTVQAEDLAVYFCQQDYNSPLTFGAGTKLELKR
notes: Rodent anti-human MDL-1 monoclonal antibody from a hybridoma; VL of the kappa subclass; also called anti-MDL-1 antibody clone DX241; ATCC PTA-8374
B7: DX244 (antibody, V domains shown)
VH: QIQLVQSGPELKKPGETVKISCKASGYTFTIYAMNWVKQAPGKGLEWMGWINTDTGEPTYADDFKGRFAFSLETSASTAYLQINNLKNEDMATYFCARSSEVFYDYRFDYWGQGTALTVSS
VL: DIQMTQSPSSLSASLGERVSLTCRASQDIGSSLNWLQQEPDGTIKRLIYATSNLDSGVPKRFSGSRSGSDYSLTISSLESEDFVHYYCLQYASSPFTFGSGTKLEIKR
notes: Parental rodent anti-human MDL-1 monoclonal antibody (not the humanized form); VL of the kappa subclass; also called anti-MDL-1 antibody clone DX244; ATCC PTA-8375
B8: DX297 (antibody, V domains shown)
VH: B5 VH with A23T, K76R, M93I, V97A, A100P, V101I
VL: B5 VL with P9A, V21I, G35S, S69G, S95N

Biological target: T1, hMDL-1-hIG
Assay: BIAcore SPR; mAb as capture reagent, hMDL-1-hIG as analyte; apparent Kd
Experimental: (§1) Determining the Equilibrium Dissociation Constant (K_d) for Humanized Anti-Human MDL-1 Antibodies Using BIAcore Technology BIAcore determinations are performed essentially as described at Example 4 of co-pending, commonly assigned U.S. patent application Ser. No. 11/511,635 (filed 29 Aug. 2006). Briefly, ligands (anti-MDL-1-hIg) are immobilized on a BIAcore CM5 sensor chip using standard amine-coupling procedure. Kinetic constants for the various interactions are determined using BIAevaluation software 3.1. The K_d is determined using the calculated dissociation and association rate constants.
(§2) For antibodies DX233, DX239, and DX240, the antibodies were used as the capture reagent and the MDL-1-hIg ligand was used as the analyte. Affinity measurements for DX233, DX239, and DX240 were as follows.

Kd	Binder
43 nM	B1
8.65 nM	B2
37.9 nM	B3

Biological target: T1, hMDL-1-hIG
Assay: BIAcore SPR; hMDL-1-hIG as capture antigen on the chip, mAb as analyte
Experimental: as §1

koff	kon	Binder
0.000817 s⁻¹	644000 M⁻¹ s⁻¹	B4
0.0016 s⁻¹	63000 M⁻¹ s⁻¹	B5
7.3e-05 s⁻¹	354000 M⁻¹ s⁻¹	B6
6.8e-05 s⁻¹	277000 M⁻¹ s⁻¹	B7

Biological target: T2, human MDL-1
Assay: cell-based or functional assay

secreted beta-hexosaminidase, OD (405-570), DT808 mouse mast cells, cross-link	secreted beta-hexosaminidase, OD (405-570), DT808 mouse mast cells, no cross-link	Binder
3.25 OD (405-570)	1.83 OD (405-570)	B1
3.21 OD (405-570)	1.22 OD (405-570)	B2
3.14 OD (405-570)	1 OD (405-570)	B3

Biological target: T2, human MDL-1
Assay: cell-based or functional assay
Remark: another data set of the same source

increase in CD11b surface expression on human neutrophils, Mean Fluorescent Intensity as compared to isotype control treatment	increase in CD66b surface expression on human neutrophils, Mean Fluorescent Intensity as compared to isotype control treatment	Binder
336 MFI	97 MFI	B1
303 MFI	90.5 MFI	B2
393 MFI	109 MFI	B4
377 MFI	107 MFI	B3
349 MFI	110 MFI	B7

Biological target: T2, human MDL-1
Assay: cell-based or functional assay
Remark: another data set of the same source

secreted beta-hexosaminidase, OD (405-570), DT808 mouse mast cells, cross-link	secreted beta-hexosaminidase, OD (405-570), DT808 mouse mast cells, no cross-link	Binder
3.23 OD (405-570)	3.39 OD (405-570)	B4
3.17 OD (405-570)	3.32 OD (405-570)	B5
3.28 OD (405-570)	3.17 OD (405-570)	B8
3.25 OD (405-570)	2.66 OD (405-570)	B6
3.36 OD (405-570)	3.46 OD (405-570)	B7

Biological target: T2, human MDL-1
Assay: cell-based or functional assay
Remark: another data set of the same source

decrease of CD62L staining (MFI) of human neutrophils, isotype control treatment minus anti-hMDL-1 treatment	Binder
114 MFI	B1
96.9 MFI	B2
152 MFI	B4
142 MFI	B3
140 MFI	B7

Biological target: T1, hMDL-1-hIG
Assay: BIAcore SPR; hMDL-1-hIG as capture antigen on the chip, mAb as analyte; apparent Kd
Experimental: as §1

Kd	Binder
1.27 nM	B4
25.2 nM	B5
0.207 nM	B6
0.247 nM	B7

Biological target: T1, hMDL-1-hIG
Assay: BIAcore SPR; mAb as capture reagent, hMDL-1-hIG as analyte
Experimental: as §1, §2

koff	kon	Binder
0.000325 s⁻¹	8000 M⁻¹ s⁻¹	B1
0.000147 s⁻¹	20000 M⁻¹ s⁻¹	B2
0.000336 s⁻¹	10000 M⁻¹ s⁻¹	B3
